± gives the standard deviation of the averaged measurements.
What was measured:
hTERT-HMEC = assay: percentage of EdU-negative (G0-arrested) nuclei per well, 72 h; higher = more G0 arrest; conditions: reference: sequence is the full UniProt precursor, the tested protein was the secreted form or ectodomain
MCF7 = assay: as above; conditions: reference: sequence is the full UniProt precursor, the tested protein was the secreted form or ectodomain
[1] = protein concentration 0.0272075 µM
[2] = protein concentration 0.272075 µM
[3] = protein concentration 0.0085 µM
[4] = protein concentration 0.0122857 µM
[5] = protein concentration 0.122857 µM
[6] = protein concentration 0.0225 µM
[7] = protein concentration 0.02225 µM
[8] = protein concentration 0.2225 µM
[9] = protein concentration 0.03125 µM
[10] = protein concentration 0.3125 µM
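Further: secreted proteins added to cultured cells, EdU pulse at the end, nuclei found by Hoechst imaging, EdU status from nuclear versus surrounding ring intensity ratio, PBS as neutral control.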

**Q.** What does the source list for “MTATEALLRVLLLLLAFGHSTYGAECFPACNPQNGFCEDDNVCRCQPGWQGPLCDQCVTSPGCLHGLCGEPGQCICTDGWDGELCDRDVRACSSAPCANNRTCVSLDDGLYECSCAPGYSGKDCQKKDGPCVINGSPCQHGGTCVDDEGRASHASCLCPPGFSGNFCEIVANSCTPNPCENDGVCTDIGGDFRCRCPAGFIDKTCSRPVTNCASSPCQNGGTCLQHTQVSYECLCKPEFTGLTCVKKRALSPQQVTRLPSGYGLAYRLTPGVHELPVQQPEHRILKVSMKELNKKTPLLTEGQAICFTILGVLTSLVVLGTVGIVFLNKCETWVSNLRYNHMLRKKKNLLLQYNSGEDLAVNIIFPEKIDMTTFSKEAGDEEI”?
**A.** percentage of EdU-negative (hTERT-HMEC; [1]): 4.9 ± 0.42%; percentage of EdU-negative (hTERT-HMEC; [2]): 6.02 ± 1.2%; percentage of EdU-negative (MCF7; [1]): 27.1 ± 2.7%; percentage of EdU-negative (MCF7; [2]): 26.7 ± 1.4%

**Q.** How did the “percentage of EdU-negative” value (hTERT-HMEC; [3]) turn out when “MVSQALRLLCLLLGLQGCLAAGGVAKASGGETRDMPWKPGPHRVFVTQEEAHGVLHRRRRANAFLEELRPGSLERECKEEQCSFEEAREIFKDAERTKLFWISYSDGDQCASSPCQNGGSCKDQLQSYICFCLPAFEGRNCETHKDDQLICVNENGGCEQYCSDHTGTKRSCRCHEGYSLLADGVSCTPTVEYPCGKIPILEKRNASKPQGRIVGGKVCPKGECPWQVLLLVNGAQLCGGTLINTIWVVSAAHCFDKIKNWRNLIAVLGEHDLSEHDGDEQSRRVAQVIIPSTYVPGTTNHDIALLRLHQPVVLTDHVVPLCLPERTFSERTLAFVRFSLVSGWGQLLDRGATALELMVLNVPRLMTQDCLQQSRKVGDSPNITEYMFCAGYSDGSKDSCKGDSGGPHATHYRGTWYLTGIVSWGQGCATVGHFGVYTRVSQYIEWLQKLMRSEPRPGVLLRAPFP” was run?
**A.** 4.77 ± 0.36%

**Q.** And the “percentage of EdU-negative” value (hTERT-HMEC; protein concentration 0.085 µM)?
**A.** 5.93 ± 1.7%

**Q.** What about the “percentage of EdU-negative” value (MCF7; [3]) of the same sequence?
**A.** 24.3 ± 4.2%

**Q.** And the “percentage of EdU-negative” value (MCF7; protein concentration 0.085 µM)?
**A.** 24.2 ± 0.32%

**Q.** “MPRGFTWLRYLGIFLGVALGNEPLEMWPLTQNEECTVTGFLRDKLQYRSRLQYMKHYFPINYKISVPYEGVFRIANVTRLQRAQVSERELRYLWVLVSLSATESVQDVLLEGHPSWKYLQEVETLLLNVQQGLTDVEVSPKVESVLSLLNAPGPNLKLVRPKALLDNCFRVMELLYCSCCKQSSVLNWQDCEVPSPQSCSPEPSLQYAATQLYPPPPWSPSSPPHSTGSVRPVRAQGEGLLP [Q6ZMJ4]” was tested. Which “percentage of EdU-negative” value (hTERT-HMEC; [4]) did it give?
**A.** 4.75 ± 0.29%

**Q.** What about the “percentage of EdU-negative” value (hTERT-HMEC; [5]) of the same sequence?
**A.** 18.4 ± 1.3%

**Q.** What about the “percentage of EdU-negative” value (MCF7; [4]) of the same sequence?
**A.** 25.6 ± 1.6%

**Q.** And the “percentage of EdU-negative” value (MCF7; [5])?
**A.** 27.7 ± 1.3%

**Q.** With “MAQRCVCVLALVAMLLLVFPTVSRSMGPRSGEHQRASRIPSQFSKEERVAMKEALKGAIQIPTVTFSSEKSNTTALAEFGKYIHKVFPTVVSTSFIQHEVVEEYSHLFTIQGSDPSLQPYLLMAHFDVVPAPEEGWEVPPFSGLERDGIIYGRGTLDDKNSVMALLQALELLLIRKYIPRRSFFISLGHDEESSGTGAQRISALLQSRGVQLAFIVDEGGFILDDFIPNFKKPIALIAVSEKGSMNLMLQVNMTSGHSSAPPKETSIGILAAAVSRLEQTPMPIIFGSGTVVTVLQQLANEFPFPVNIILSNPWLFEPLISRFMERNPLTNAIIRTTTALTIFKAGVKFNVIPPVAQATVNFRIHPGQTVQEVLELTKNIVADNRVQFHVLSAFDPLPVSPSDDKALGYQLLRQTVQSVFPEVNITAPVTSIGNTDSRFFTNLTTGIYRFYPIYIQPEDFKRIHGVNEKISVQAYETQVKFIFELIQNADTDQEPVSHLHKL [Q6GTS8]” as the sequence, how does the “percentage of EdU-negative” value (hTERT-HMEC; [6]) read?
**A.** 4.69 ± 0.48%

**Q.** And the “percentage of EdU-negative” value (hTERT-HMEC; protein concentration 0.225 µM)?
**A.** 5.33 ± 0.14%

**Q.** And the “percentage of EdU-negative” value (MCF7; [6])?
**A.** 28 ± 2%

**Q.** And the “percentage of EdU-negative” value (MCF7; protein concentration 0.225 µM)?
**A.** 24.4 ± 2.8%

**Q.** With “MWQIVFFTLSCDLVLAAAYNNFRKSMDSIGKKQYQVQHGSCSYTFLLPEMDNCRSSSSPYVSNAVQRDAPLEYDDSVQRLQVLENIMENNTQWLMKLENYIQDNMKKEMVEIQQNAVQNQTAVMIEIGTNLLNQTAEQTRKLTDVEAQVLNQTTRLELQLLEHSLSTNKLEKQILDQTSEINKLQDKNSFLEKKVLAMEDKHIIQLQSIKEEKDQLQVLVSKQNSIIEELEKKIVTATVNNSVLQKQQHDLMETVNNLLTMMSTSNSAKDPTVAKEEQISFRDCAEVFKSGHTTNGIYTLTFPNSTEEIKAYCDMEAGGGGWTIIQRREDGSVDFQRTWKEYKVGFGNPSGEYWLGNEFVSQLTNQQRYVLKIHLKDWEGNEAYSLYEHFYLSSEELNYRIHLKGLTGTAGKISSISQPGNDFSTKDGDNDKCICKCSQMLTGGWWFDACGPSNLNGMYYPQRQNTNKFNGIKWYYWKGSGYSLKATTMMIRPADF” as the sequence, how does the “percentage of EdU-negative” value (hTERT-HMEC; [7]) read?
**A.** 4.54 ± 0.087%

**Q.** And the “percentage of EdU-negative” value (hTERT-HMEC; [8])?
**A.** 7.44 ± 0.6%

**Q.** And the “percentage of EdU-negative” value (MCF7; [7])?
**A.** 27.2 ± 1.1%

**Q.** And the “percentage of EdU-negative” value (MCF7; [8])?
**A.** 27.32 ± 0.1%

**Q.** How did the “percentage of EdU-negative” value (hTERT-HMEC; [9]) turn out when “MESRGPLATSRLLLLLLLLLLRHTRQGWALRPVLPTQSAHDPPAVHLSNGPGQEPIAVMTFDLTKITKTSSSFEVRTWDPEGVIFYGDTNPKDDWFMLGLRDGRPEIQLHNHWAQLTVGAGPRLDDGRWHQVEVKMEGDSVLLEVDGEEVLRLRQVSGPLTSKRHPIMRIALGGLLFPASNLRLPLVPALDGCLRRDSWLDKQAEISASAPTSLRSCDVESNPGIFLPPGTQAEFNLRDIPQPHAEPWAFSLDLGLKQAAGSGHLLALGTPENPSWLSLHLQDQKVVLSSGSGPGLDLPLVLGLPLQLKLSMSRVVLSQGSKMKALALPPLGLAPLLNLWAKPQGRLFLGALPGEDSSTSFCLNGLWAQGQRLDVDQALNRSHEIWTHSCPQSPGNGTDASH” was run?
**A.** 4.94 ± 0.58%

**Q.** What about the “percentage of EdU-negative” value (hTERT-HMEC; [10]) of the same sequence?
**A.** 17.6 ± 1.6%

**Q.** And the “percentage of EdU-negative” value (MCF7; [9])?
**A.** 21.8 ± 3%

**Q.** What about the “percentage of EdU-negative” value (MCF7; [10]) of the same sequence?
**A.** 23.55 ± 0.15%
